Consider two substances from paper PMC6399494.

Series [1] can be described thus: immunoblot, Hepa1c1c7 lysate, normalised to actin. The conditions noted are these: glycan gained; control: wild type full-length LDLR. (In western blotting, separated proteins are transferred to a membrane and probed.)
Series [2] in a line: cell-surface biotinylation and confocal microscopy, HEK293. The conditions noted are these: glycan gained; control: wild type full-length LDLR.
The nature of series [3]: immunoblot of mature LDLR form, HEK293. Conditions: glycan lost; control: DMSO-treated cells.

LDL receptor (LDLR): D203N: the expression_or_secretion result in series [1] is reported as “no change”. The localisation_or_trafficking entry in series [2] was “no change”.
Consider “LDL receptor (LDLR): tunicamycin, WT LDLR”, for which the localisation_or_trafficking result in series [3] was “no change”.
